In publication doi:10.1101/2024.10.24.620088 one finds stoichiometry N data, which are given here for 2 substances.

Several values for one entry are separate records, joined by “and”; a condition that tells them apart may be missing. Equal values may be shown once. Read-outs that look alike come from different tables or passages of the source.

Common to all, as to experiment: cryo-EM structure
Test [1] deals with DUF4297 from Bacillus ap. HMH5848 (Bacillus ap. HMH5848).
Test [2] shares this target. This is another data set of the same source.
Test [3] has as its target HerA from Bacillus ap. HMH5848 (Bacillus ap. HMH5848).
Test [4] shares this target. This is another data set of the same source.

The term stoichiometry N denotes the number of molecules, sites or subunits per partner or assembly.

For “DUF4297 from Bacillus ap. HMH5848 (natural protein)”, the stoichiometry N is 12 and 4 and 6 in test [1]; 12 in test [2].
On to HerA from Bacillus ap. HMH5848 (enzyme), for which the stoichiometry N in test [3] and in test [4] was 6 throughout.
